The numbers were not newly measured in patent US20260345619A1 (Principia Biopharma Inc., priority 2023, published 2026), which cites them from elsewhere.

The conditions of this data set: for efficacy: severe asthma, eosinophilic phenotype.

B1: reslizumab: anti-interleukin (IL)-5 agent (antibody, chains of the INN, looked up, V domains shown)
VH: EVQLVESGGGLVQPGGSLRLSCAVSGLSLTSNSVNWIRQAPGKGLEWVGLIWSNGDTDYNSAIKSRFTISRDTSKSTVYLQMNSLRAEDTAVYYCAREYYGYFDYWGQGTLVTVSS
VL: DIQMTQSPSSLSASVGDRVTITCLASEGISSYLAWYQQKPGKAPKLLIYGANSLQTGVPSRFSGSGSATDYTLTISSLQPEDFATYYCQQSYKFPNTFGQGTKVEVK
As for B1, the efficacy entry is on record as “have shown efficacy”.

B2: mepolizumab: anti-interleukin (IL)-5 agent (antibody, chains of the INN, looked up, V domains shown)
VH: QVTLRESGPALVKPTQTLTLTCTVSGFSLTSYSVHWVRQPPGKGLEWLGVIWASGGTDYNSALMSRLSISKDTSRNQVVLTMTNMDPVDTATYYCARDPPSSLLRLDYWGRGTPVTVSS
VL: DIVMTQSPDSLAVSLGERATINCKSSQSLLNSGNQKNYLAWYQQKPGQPPKLLIYGASTRESGVPDRFSGSGSGTDFTLTISSLQAEDVAVYYCQNVHSFPFTFGGGTKLEIK
In the case of B2, the efficacy result was “have shown efficacy”. Further, the “patients with no decrease in oral corticosteroid (OCS) dose or lack of asthma control” value (high eosinophilic group (Bel E H et al., 2014)) was 36%.
